In the RNAGym collection of RNA variant scans (doi:10.1073/pnas.2313332121):

B1: TPR t1 (parent)
chain: GACCAAUCUGCCCUCAGAGCUCGAGAACAUCUUCGGAUGCAGAGGAGGCAGGCUUCGGUGGCGCGAUAGCGCCAACGUCCUCAACCUCCAAUGCAUCCCACCACAUGAUGAUGCCUGAAGAGCCUUGGUUUUUUG

Variants of: B1
Assay: polymerase ribozyme fitness, log enrichment relative to wild type (log ratio); higher = more active; in vitro selection for triplet polymerase activity
In short: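 After PCR construction and transcription, each subunit's mutant library from a heterodimeric triplet polymerase ribozyme was annealed with a biotinylated primer, the partner subunit and triplets. Incubation was frozen, at −7 °C, and extended constructs were gel-excised, bound to streptavidin beads and amplified by RT-PCR, in one selection round done in triplicate. Fitness is the logarithm of a genotype's enrichment divided by that of the wild type, from inverse-variance-weighted replicate averages of Illumina-sequenced inputs and outputs. The base of the logarithm is 2, and genotypes needed ≥10 input reads and ≥1 read per output.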

| Variant | polymerase ribozyme fitness (log ratio) |
| --- | --- |
| C70U C115U C123G | -1.96 |
| C70A G77C | -2.99 |
| G69C U92A U133G | -4.36 |
| C70A A74U | -3.39 |
| C70U C94U | -0.0504 |
| C70U C85U A91C | -3.52 |
| C70U G110U U112G | -6.05 |
| C70A C123U | -0.0495 |
| C70A C123G | -0.534 |
| C70U C82U G93U | -1.52 |
| C70G U112G | -2.86 |
| C70G U112A | -1.98 |
| C70U G77U C94A U116C A121C | -2.35 |
| C70U C104A | -2.32 |
| G69U G71U G120U U126A | -0.887 |
| C70A C80G U87A C88U C94U C123G | -6.08 |
| C70G A100U C115A G120U | -2.99 |
| C70U G107A | -5.06 |
| C70U G107U | -4.87 |
| C70U C102A G127A | -3.84 |
| G69U C79A C88G | -0.43 |
| C70A A83U | -2.44 |
| G69C G77A C98U U126C U130C | -3.72 |
| C70U G113A C123A | -2.31 |

| Variant | polymerase ribozyme fitness (log ratio) |
| --- | --- |
| C70A A105G | -4.48 |
| C70G U81C | -3.83 |
| C70G U81A | -5.64 |
| C70G C124A G127U U132C | -0.524 |
| C70U A84G | -1.86 |
| G69U G113A | -0.285 |
| G69U G113C | -0.897 |
| G69C G93C G122A | -4.01 |
| C70A A95G | -1.6 |
| G69C U78G C115U U125A | -5.54 |
| G69U C99A U130G | -3.92 |
| C70G C80U | -2.51 |
| G69C U112A | -0.545 |
| C70A C114U | -3.91 |
| C70A C114G | -4.93 |
| C70U C124A | 1.38 |
| C70U C124U | 0.579 |
| C70A G117A | -3.29 |
| G69U C101U U126C | -0.166 |
| G69C C104U | -1.49 |
| G69C C104A | -1.87 |
| G69U G110C U125C | -1.52 |
| C70U A100U | -1.33 |
| C70U A100C | -1.61 |

| Variant | polymerase ribozyme fitness (log ratio) |
| --- | --- |
| C70U A91U G113A | -2.99 |
| C70U C97A C102G U109G G117A | -6.26 |
| C70G U129A | -4.27 |
| C70A A111U A121U | -5.08 |
| G69C G110A | -2.04 |
| C70G C79U | -3.08 |
| C70U C97U | -0.226 |
| G69C U133G | -1.57 |
| G69C C102U A108C A111G C115U U130A | -6.19 |
| G69U A84C | 0.129 |
| G69U A84U | 0.757 |
| C70U G71C | -1.67 |
| C70U G71A | -1.05 |
| C70U C88G U132C | -1.25 |
| G69U G71U G117A | -2.19 |
| G69U C104A U116A C124U | -0.357 |
| G69U U81G A103U | -6.76 |
| C70A U87A | -1.22 |
| C70A C94U | -1.23 |
| C70U C102G | -6.87 |
| G69C G71U | -4.82 |
| C70G A103G | -4.93 |
| G69U C98G | -2.4 |
| C70U | -0.414 |

| Variant | polymerase ribozyme fitness (log ratio) |
| --- | --- |
| C70G | -2.49 |
| C70A | -1.51 |
| G69U C98U U129C | -1.15 |
| C70U C94U U112A | 0.254 |
| G69C G93U | -2.49 |
| G69C G93C | -3.05 |
| G69U C82U A111C U112A G122C | -0.869 |
| G69U C86U | -0.254 |
| C70A C86U | -1.81 |
| G69C U96C | -2.24 |
| C70A G77A C97A A121U | -5.66 |
| C70U C115U | -1.84 |
| G69U U131A | -0.175 |
| C70G A84U C85U C104U | -4.81 |
| G69C C99U | -3.79 |
| C70U C89A A90G U92A | -6.08 |
| C70U G128U | -1.82 |
| G69U C80U C102U C104U G120C | 1.02 |
| G69U C73U G110A C123A | -0.661 |
| G69U C115U | -0.095 |
| C70A C85A | -3.25 |
| C70A C85U | -2.32 |
| C70U C82G G117U | -3.92 |
| G69U C88U G120U | 0.599 |

| Variant | polymerase ribozyme fitness (log ratio) |
| --- | --- |
| C70U G120C | 0.206 |
| C70U G120A | 0.259 |
| G69U C89A | -0.471 |
| G69U U78C C88U | 0.314 |
| G69C C94U U96A | -2.83 |
| C70U A121G | -0.18 |
| C70U A121U | 0.918 |
| G69U U87C | 0.421 |
| C70G C85A G93A C99G G110U | -6.29 |
| C70A C101U U106C | -1.6 |
| G69U G122A | 0.377 |
| C70G C88G | -5.57 |
| G69U A119G G122C | -2.33 |
| C70A C99U U109A | -6.83 |
| G69U G93C | -0.253 |
| C70G C123G U131C | 0.0447 |
| G69U C85G | -0.537 |
| G69C U92C | -2.26 |
| G69C U92G | -4.02 |
| C70U C86U | -1.4 |
| C70U C86A | -1.13 |
| C70U C86G | -1.54 |
| C70A G120U | -1.5 |
| C70U C99A A121G | -5.54 |

| Variant | polymerase ribozyme fitness (log ratio) |
| --- | --- |
| C70G G110U | -4.62 |
| C70U U78A | -1.17 |
| C70U C72G U92A A108U U112C G113A A121G | -6.12 |
| C70U G135A | -1.42 |
| G69C C124G | 0.351 |
| C70U C73G A105U | -4.61 |
| C70U A95C U109A | -7.47 |
| G69U U81C G120C G122A G128A | -3.32 |
| C70A U92A A95U A111C G113C | -6.14 |
| G69U A95U G122A | -0.876 |
| G69U G117C U130C | -2.79 |
| G69U C88A | 0.231 |
| C70U A95U C124A | -2.31 |
| C70G G122U | -2.27 |
| C70G G122A | -3.06 |
| G69C C85U C86A | -3.64 |
| C70G C102A | -5.59 |
| G69C C79G U109G | -6.78 |
| G69U G110A | 0.0569 |
| G69C U109A | -8.01 |
| G69U C72U C79U | -0.113 |
| C70G A121G | -0.69 |
| C70G A121U | -0.929 |
| G69U C86G G120C | 0.63 |

| Variant | polymerase ribozyme fitness (log ratio) |
| --- | --- |
| C70U A74G | -1.83 |
| C70U A74U | -0.47 |
| C70A C82U A84C U87C U116A C123G U131C | -1.57 |
| C70U C85A C94U U112C | -0.466 |
| C70A C89A C104U A111U G113A G127C | -6.35 |
| C70G U78C G113C | -5.1 |
| C70G A100C | -4.69 |
| C70A C72U U92G G120U | -6 |
| C70U U78C C86G | -0.947 |
| G69U C123G | 2.28 |
| G69U G71C | -2.52 |
| G69U C104U G127A | -0.309 |
| C70G U112G U125C | -3.92 |
| G69U G93U G110A | -0.494 |
| G69U A75U C101U G113C U129A | -2.36 |
| G69U G107C | -4.24 |
| G69U U129A | -0.546 |
| C70U C123A | -0.0908 |
| C70U C123U | 0.707 |
| C70U C123G | 0.306 |
| G69C U132A | -2.03 |
| C70G U78C | -2.66 |
| G69C C86U | -1.37 |
